# Molecular target: Myl12a, biotinylated (murine) (UniProt Q6ZWQ9)
# Test: BLI
substance,measurement,value
SteC 194 aa–364 aa (domain or fragment),fold decrease of affinity,10 fold

# — paper PMC11021425, “Salmonella manipulates macrophage migration via SteC-mediated myosin light chain activation to penetrate the gut-vascular barrier” (The EMBO Journal, 2024)
